According to patent publication US20250320286A1 (Janssen / Centocor, published 2025):

Assays:
fibronectin [1] = experiment: SPR; no binding up to 1.2 µM
Method: (§1) In some instances, binding affinities and specificity of anti-Aβ 3pE mAbs were measured by SPR performed using different instruments (Biacore T200, Biacore 8K or MASS-2 (Biacore, Inc.)) and anti-human or anti-mouse immunoglobulin biosensor surfaces. Anti-human or anti-mouse immunoglobulin antibodies were covalently coupled to the surface of CM4 or CM5 sensor chips (GE Healthcare) using manufacturer instructions for amine-coupling chemistry. Antibodies of interest were captured on the anti-human or mouse immunoglobulin sensor chip to a level of 300-400 RU, followed by injection of Aβ peptides or proteins (examples: human Aβ 3pE-40(SEQ ID NO:40), Aβ 3pE-28 (SEQ ID NO:42), scrambled Aβ 3pE-28 (SEQ ID NO:44), Aβ 1-28 (SEQ ID NO:43), mouse Aβ 3pE-28 (SEQ ID NO:46), or Fibronectin) at various concentrations in HEPES Buffered Saline containing 0.005% surfactant P20 (Tween™ 20). The surface was regenerated with 2 pulses injections of 30 μL of 10 mM Gly pH1.5 at 100 μL/min. Data reported is the difference in SPR signal between the flow cell containing the captured antibody and a reference cell without captured antibody. Additional instrumental contributions to the signal were removed by subtraction of the data from the blank injection from the reference-subtracted signal. When applicable data were analyzed by fitting association and dissociation phases at all concentrations (global fit) with a 1:1 binding model using the Biaevaluation software (Biacore, Inc.). Otherwise the data was evaluated qualitatively for YES/NO binding.

[2] = molecular target: T1, 3pE Aβ peptide (antigen, form not stated); experiment: SPR; antigen peptide not named
T1 construct: also called the peptide

fibronectin [3] = experiment: SPR; KD for this target divided by KD for human Aβ 3pE-28
Method: as §1

4U-3pE-beta-Amyloid = experiment: SPR; 4U-3pE-beta-Amyloid 0.6 to 4.5 nM
[4] = molecular target: T1, 3pE Aβ peptide (antigen, form not …); experiment: SPR; antigen peptide not named; range over the HFA variants
human Aβ1-42 peptide = human Aβ1-42 peptide (human); experiment: sandwich ELISA, BAMB31_1 coated, JRF/cAβ42/26-HRPO detection
Method: For the selected Aβ3pE monoclonal antibody BAMB31, the cross-reactivity with rodent Aβ3pE-40 (SEQ ID NO:45) and human Aβ1-40 (SEQ ID NO:41), Aβ1-42 (SEQ ID NO: 48), Aβ11pE-40(SEQ ID NO:49) and Aβ11pE-42 (SEQ ID NO:50) was evaluated using synthetic peptides. The combination BAMB31 +JRF/cAβ40/28-HRPO was used to investigate the cross-reactivity with Aβ1-40 (SEQ ID NO:41), Aβ11pE-40 (SEQID NO: 49) and rodent Aβ3pE-40 (SEQ ID NO:45), and the combination BAMB31+JRF/cAβ42/26-HRPO was used to investigate the cross-reactivity with Aβ1-42 (SEQ ID NO:48) and Aβ11pE-42 (SEQ ID NO:50). Concentrations up to 10,000 pg/mL were tested.
Materials and Methods: Standards were dissolved in dimethylsulphoxide (DMSO) (Sigma) at 0.1 mg/mL and stored at −80° C. For use in ELISA, peptides were further diluted in 0.1% casein in PBS down to 1 pg/mL. Ninety-six-well-plates (Maxisorb ELISA plates; NUNC) were coated overnight at 4° C. with monoclonal antibodies from BAMB31_1 at a concentration of 1.5 μg/mL in coating buffer. The next day, plates were washed and blocked with 0.1% casein in PBS for 1-4 hours at room temperature. Standards were incubated overnight at 4° C. together with HRPO-labeled secondary antibody (JRF/cAβ40/28-HRPO or JRF/cAβ42/26-HRPO). […]

Sequence of human Aβ1-42 peptide (human) (peptide, as listed by the source): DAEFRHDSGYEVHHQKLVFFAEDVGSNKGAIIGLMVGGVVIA

B1: BAMB246 (human IgG1 chimera) (antibody)
heavy: not shown
light: DVVMTQTPLTLSVTIGQPASISCKSSQSLLDSNGKTYLTWLLQRPGQSPKRLIYLVSKLDSGVPDRFTGSGAGTDFTLKIIRVEAEDLGVYYCWQGTHFPYTFGGGTKLEIKRTVAAPSVFIFPPSDEQLKSGTASVVCLLNNFYPREAKVQWKVDNALQSGNSQESVTEQDSKDSTYSLSSTLTLSKADYEKHKVYACEVTHQGLSSPVTKSFNRGEC
notes: Mouse variable regions on a human IgG1 constant region; also called BAMB246 (human chimeric parent)
Kd (fibronectin [1]): > 1200 nM | Kd [2]: 0.0139 nM | Fold Selectivity (fibronectin [3]): > 95000 fold

B2: BAMB674 (antibody, human IgG1, kappa)
heavy: not shown
light: DVVMTQSPLSLPVTLGQPASISCKSSQSLLDSRAKTYLTWLQQRPGQSPRRLIYLVSKLDSGVPDRFSGSGSGTDFTLKISRVEAEDVGVYYCWQGTHFPYTFGGGTKLEIKRTVAAPSVFIFPPSDEQLKSGTASVVCLLNNFYPREAKVQWKVDNALQSGNSQESVTEQDSKDSTYSLSSTLTLSKADYEKHKVYACEVTHQGLSSPVTKSFNRGEC
notes: Lead HFA variant, wild type human IgG1; HCDR2 N55S; also called BAMAB674; BAMB31 HFA mAb, wild type IgG1
Kd (fibronectin [1]): > 1200 nM | Kd (4U-3pE-beta-Amyloid): 0.0401 nM | koff (4U-3pE-beta-Amyloid): 0.000136 s⁻¹ | kon (4U-3pE-beta-Amyloid): 3.39e+06 M⁻¹ s⁻¹ | Fold Selectivity (fibronectin [3]): > 47000 fold

B3: BAMB701 (antibody, human IgG1, kappa)
heavy: QVQLVQSGAEVKKPGASVKVSCKASGHVFTSYDMYWVRQAPGQGLEWIGYIDSDSGDTSYNQKFKGRVTLTVDTSTSTVYMELSSLRSEDTAVYYCAYYRYAMDYWGQGTLVTVSSASTKGPSVFPLAPSSKSTSGGTAALGCLVKDYFPEPVTVSWNSGALTSGVHTFPAVLQSSGLYSLSSVVTVPSSSLGTQTYICNVNHKPSNTKVDKKVEPKSCDKTHTCPPCPAPELLGGPSVFLFPPKPKDTLYITREPEVTCVVVDVSHEDPEVKFNWYVDGVEVHNAKTKPREEQYNSTYRVVSVLTVLHQDWLNGKEYKCKVSNKALPAPIEKTISKAKGQPREPQVYTLPPSREEMTKNQVSLTCLVKGFYPSDIAVEWESNGQPENNYKTTPPVLDSDGSFFLYSKLTVDKSRWQQGNVFSCSVMHEALHNHYTQKSLSLSPGK
light: DVVMTQSPLSLPVTLGQPASISCKSSQSLLDSRAKTYLTWLQQRPGQSPRRLIYLVSKLDSGVPDRFSGSGSGTDFTLKISRVEAEDVGVYYCWQGTHFPYTFGGGTKVEIKRTVAAPSVFIFPPSDEQLKSGTASVVCLLNNFYPREAKVQWKVDNALQSGNSQESVTEQDSKDSTYSLSSTLTLSKADYEKHKVYACEVTHQGLSSPVTKSFNRGEC
Kd (4U-3pE-beta-Amyloid): 0.0314 nM | koff (4U-3pE-beta-Amyloid): 9.47e-05 s⁻¹ | kon (4U-3pE-beta-Amyloid): 3.01e+06 M⁻¹ s⁻¹

B4: BAMB700 (antibody, human IgG1, kappa)
heavy: not shown
light: DVVMTQSPLSLPVTLGQPASISCKSSQSLLDSRAKTYLTWLQQRPGQSPRRLIYLVSKLDSGVPDRFSGSGSGTDFTLKISRVEAEDVGVYYCWQGTHFPYTFGQGTKLEIKRTVAAPSVFIFPPSDEQLKSGTASVVCLLNNFYPREAKVQWKVDNALQSGNSQESVTEQDSKDSTYSLSSTLTLSKADYEKHKVYACEVTHQGLSSPVTKSFNRGEC
Kd (4U-3pE-beta-Amyloid): 0.0342 nM | koff (4U-3pE-beta-Amyloid): 9.86e-05 s⁻¹ | kon (4U-3pE-beta-Amyloid): 2.88e+06 M⁻¹ s⁻¹

B5: BAMB675 (antibody, human IgG1, kappa)
heavy: QVQLVQSGAEVKKPGASVKVSCKASGHVFTSYDMYWVRQAPGQGLEWIGYIDSDSGDTSYNQKFKGRVTLTVDTSTSTVYMELSSLRSEDTAVYYCAYYRYAMDYWGQGTLVTVSSASTKGPSVFPLAPSSKSTSGGTAALGCLVKDYFPEPVTVSWNSGALTSGVHTFPAVLQSSGLYSLSSVVTVPSSSLGTQTYICNVNHKPSNTKVDKKVEPKSCDKTHTCPPCPAPELLGGPSVFLFPPKPKDTLYITREPEVTCVVVDVSHEDPEVKFNWYVDGVEVHNAKTKPREEQYNSTYRVVSVLTVLHQDWLNGKEYKCKVSNKALPAPIEKTISKAKGQPREPQVYTLPPSREEMTKNQVSLTCLVKGFYPSDIAVEWESNGQPENNYKTTPPVLDSDGSFFLYSKLTVDKSRWQQGNVFSCSVMHEALHNHYTQKSLSLSPGK
light: DVVMTQSPLSLPVTLGQPASISCKSSQSLLDSRAKTYLTWLQQRPGQSPRRLIYLVSKLDSGVPDRFSGSGSGTDFTLKISRVEAEDVGVYYCWQGTHFPYTFGGGTKLEIKRTVAAPSVFIFPPSDEQLKSGTASVVCLLNNFYPREAKVQWKVDNALQSGNSQESVTEQDSKDSTYSLSSTLTLSKADYEKHKVYACEVTHQGLSSPVTKSFNRGEC
notes: Same V regions as BAMB674 on IgG1 with M37Y, S39T, T41E in the Fc (numbering on GenBank AEV43323); also called BAMB31 HFA mAb, +YTE IgG1
Kd (fibronectin [1]): > 1200 nM | Kd (4U-3pE-beta-Amyloid): 0.0443 nM | koff (4U-3pE-beta-Amyloid): 0.000166 s⁻¹ | kon (4U-3pE-beta-Amyloid): 3.74e+06 M⁻¹ s⁻¹ | Fold Selectivity (fibronectin [3]): > 46000 fold

B6: BAMB631 (antibody, human IgG1, kappa, V domains shown)
VH: QVQLVQSGAEVKKPGASVKVSCKASGHVFTSYDMYWVRQAPGQSLEWMGYIDSDNGDTSYNQKFKGRVTLTVDTSTSTVYMELSSLRSEDTAVYYCAYYRYAMDYWGQGTLVTVSS
VL: DVVMTQSPLSLPVTLGQPASISCKSSQSLLDSRAKTYLTWLLQRPGQSPRRLIYLVSKLDSGVPDRFSGSGSGTDFTLKISRVEAEDVGVYYCWQGTHFPYTFGGGTKLEIKR
notes: BAMB31 HFA variant, human IgG1
Kd [2]: 0.018 nM

B7: BAMB612 (antibody, human IgG1, kappa, V domains shown)
VH: QVQLVQSGAEVKKPGASVKVSCKASGHVFTSYDMYWVRQSPGQGLEWIGYIDSDNGDTSYNQKFKGRVTLTVDTSTSTVYMELSSLRSEDTAVYYCAYYRYAMDYWGQGTLVTVSS
VL: DVVMTQSPLSLPVTLGQPASISCKSSQSLLDSRAKTYLTWLQQRPGQSPRRLIYLVSKLDSGVPDRFSGSGSGTDFTLKISRVEAEDVGVYYCWQGTHFPYTFGGGTKLEIKR
notes: as for B6
Kd [2]: 0.0117 nM | Kd [4]: 0.0117 nM

B8: BAMB611 (antibody, human IgG1, kappa, V domains shown)
VH: QVQLVQSGAEVKKPGASVKVSCKASGHVFTSYDMYWVRQAPGQGLEWMGYIDSDNGDTSYNQKFKGRVTMTVDTSTSTVYMELSSLRSEDTAVYYCAYYRYAMDYWGQGTLVTVSS
VL: DVVMTQSPLSLPVTLGQPASISCKSSQSLLDSNGKTYLTWFQQRPGQSPRRLIYLVSKLDSGVPDRFSGSGSGTDFTLKISRVEAEDVGVYYCWQGTHFPYTFGGGTKLEIKR
notes: as for B6
Kd [2]: 1.52 nM | Kd [4]: 1.52 nM

B9: BAMB630 (antibody, human IgG1, kappa, V domains shown)
VH: QVQLVQSGAEVKKPGASVKVSCKASGHVFTSYDMYWVKQAPGQSLEWIGYIDSDNGDTSYNQKFKGKVTLTVDTSTSTVYMELSSLRSEDTAVYYCAYYRYAMDYWGQGTLVTVSS
VL: DVVMTQSPLSLPVTLGQPASISCKSSQSLLDSRAKTYLTWLLQRPGQSPRRLIYLVSKLDSGVPDRFSGSGSGTDFTLKISRVEAEDVGVYYCWQGTHFPYTFGGGTKLEIKR
notes: as for B6
Kd [2]: 0.0383 nM

B10: BAMB614 (antibody, human IgG1, kappa, V domains shown)
VH: QVQLVQSGAEVKKPGASVKVSCKASGHVFTSYDMYWVRQAPGQGLEWIGYIDSDNGDTSYNQKFKGRVTLTVDTSTSTVYMELSSLRSEDTAVYYCAYYRYAMDYWGQGTLVTVSS
VL: DVVMTQSPLSLPVTLGQPASISCKSSQSLLDSRAKTYLTWLQQRPGQSPRRLIYLVSKLDSGVPDRFSGSGSGTDFTLKISRVEAEDVGVYYCWQGTHFPYTFGGGTKLEIKR
notes: as for B6
Kd [2]: 0.016 nM

B11: BAMB623 (antibody, human IgG1, kappa, V domains shown)
VH: QVQLVQSGAEVKKPGASVKVSCKASGHVFTSYDMYWVRQAPGQSLEWIGYIDSDNGDTSYNQKFKGKATMTVDTSTSTVYMELSSLRSEDTAVYYCAYYRYAMDYWGQGTLVTVSS
VL: DVVMTQSPLSLPVTLGQPASISCKSSQSLLDSRAKTYLTWLQQRPGQSPRRLIYLVSKLDSGVPDRFSGSGSGTDFTLKISRVEAEDVGVYYCWQGTHFPYTFGGGTKLEIKR
notes: as for B6
Kd [2]: 0.0183 nM

B12: BAMB613 (antibody, human IgG1, kappa, V domains shown)
VH: QVQLVQSGAEVKKPGASVKVSCKASGHVFTSYDMYWVRQAPGQGLEWIGYIDSDNGDTSYNQKFKGKVTLTVDTSTSTVYMELSSLRSEDTAVYYCAYYRYAMDYWGQGTLVTVSS
VL: DVVMTQSPLSLPVTLGQPASISCKSSQSLLDSRAKTYLTWLQQRPGQSPRRLIYLVSKLDSGVPDRFSGSGSGTDFTLKISRVEAEDVGVYYCWQGTHFPYTFGGGTKLEIKR
notes: as for B6
Kd [2]: 0.0182 nM

B13: BAMB31_1 (antibody, mouse IgG1, V domains shown)
VH: EIQLQQSGPELVKPGTSVKVSCKASGHVFTSYDMYWVKQSHGKSLEWIGYIDSDNGDTSYNQKFKGKATLTVDKSSSTAYMHLNSLTSEDSAVYYCAYYRYAMDYWGQGTSVTVSS
VL: not shown
notes: Hybridoma antibody
binding result (human Aβ1-42 peptide): no binding (tested: 10 ng/ml)
